The values that follow come from patent CN116082499A.

In general, Kd refers to the free concentration of one partner at which half of the binding sites on the other are occupied at equilibrium, for simple one-to-one binding. A word on the koff: it is a measure of how fast the partners let go of each other. The low end stands for a long-lived complex, the high end for a short-lived complex. The kon is the rate constant with which the complex forms. Read a low kon as slow association.

Experiment [1] addresses DENV抗原 (DENV阳性血清) (dengue virus (DENV), serotype not stated). Nature of the experiment: sandwich ELISA, antibody at 12.5 ng/ml captured on goat anti-mouse IgG, DENV-positive serum, HRP-labelled DENV mAb.
Experiment [2] shares this target. Nature of the experiment: sandwich ELISA, antibody at 0.78125 ng/ml captured on goat anti-mouse IgG, DENV-positive serum, HRP-labelled DENV mAb. (In general: An ELISA detects its analyte on a solid surface through an enzyme-linked reagent.)
For experiment [3] the target is unchanged. Nature of the experiment: sandwich ELISA, antibody at 0 ng/ml (blank without antibody), goat anti-mouse IgG, DENV-positive serum, HRP-labelled DENV mAb.
The target is the same in experiment [4]. Nature of the experiment: sandwich ELISA, antibody at 3.125 ng/ml captured on goat anti-mouse IgG, DENV-positive serum, HRP-labelled DENV mAb.
Experiment [5] has the same target. Nature of the experiment: sandwich ELISA, antibody at 1.5625 ng/ml captured on goat anti-mouse IgG, DENV-positive serum, HRP-labelled DENV mAb.
Experiment [6] has the same target. Nature of the experiment: sandwich ELISA, antibody at 6.25 ng/ml captured on goat anti-mouse IgG, DENV-positive serum, HRP-labelled DENV mAb.
In experiment [7] the target is DENV-IV抗原(一种NS1蛋白，购自菲鹏) (dengue virus serotype 4 (DENV-IV)) (UniProt P09866).
Chain of UniProt P09866 (P09866 775-1126 limits assumed): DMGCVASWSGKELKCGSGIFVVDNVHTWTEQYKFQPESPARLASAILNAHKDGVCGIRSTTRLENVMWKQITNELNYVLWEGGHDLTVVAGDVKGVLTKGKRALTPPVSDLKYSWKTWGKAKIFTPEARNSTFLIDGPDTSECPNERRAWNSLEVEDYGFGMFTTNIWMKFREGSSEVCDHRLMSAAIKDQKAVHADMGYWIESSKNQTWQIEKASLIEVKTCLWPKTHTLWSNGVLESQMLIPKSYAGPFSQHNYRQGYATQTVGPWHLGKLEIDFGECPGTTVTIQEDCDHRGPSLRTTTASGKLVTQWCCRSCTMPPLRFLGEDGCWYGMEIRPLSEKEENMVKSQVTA

As for 对照抗体 (antibody), the OD (450nm, 参考630nm) was 1.54 OD in experiment [1]; 0.317 OD in experiment [2]; 0.045 OD in experiment [3]; 0.692 OD in experiment [4]; 0.48 OD in experiment [5]; 0.996 OD in experiment [6]. The same substance came in with a Kd in experiment [7] of 0.811 µM. Besides, the koff in experiment [7] was 0.0019 s⁻¹. The on-rate constant (kon) in experiment [7] was 2340 M⁻¹ s⁻¹.
